Source: US20230002496A1 (STAIDSON BEIJING BIOPHARMACEUTICALS, published 2023)
Where a chain is given by its changes, count along the chain named.

B1: E35-scFv LN93E (scFv, V domains shown)
VH: QMQLVQSGAEVKKPGASVKVSCKVSGYTLTELSIHWVRQAPGKGLEWMGGFDPEDGETIYAQKFQGRVTMTGDTSTDTAYLELSSLRSEDTALYYCATGRYTSLATTYGFDYWGQGTLVTVSS
VL: EIVMTQSPATLSLSPGERATLSCRASQSVSSYLAWYQQKPGQAPRLLIYGASSRATGIPDRFSGSGSGTDFTLTISRLEPEDFAVYYCQQYDEWPYTFGQGTKLEIK
B2: E35-scFv HE31K (scFv, V domains shown)
VH: B1 VH with E31K
VL: B1 VL with E93N
B3: E35-scFv LN93M (scFv, V domains shown)
VH: B1 VH
VL: B1 VL with E93M
B4: E35-scFv HT30R (scFv, V domains shown)
VH: B1 VH with T30R
VL: B1 VL with E93N
B5: E35-scFv LN93S (scFv, V domains shown)
VH: B1 VH
VL: B1 VL with E93S
B6: E35-scFv HE31Y (scFv, V domains shown)
VH: B1 VH with E31Y
VL: B1 VL with E93N
B7: E35-scFv HT30Q (scFv, V domains shown)
VH: B1 VH with T30Q
VL: B1 VL with E93N
B8: E35-scFv HT30Y (scFv, V domains shown)
VH: B1 VH with T30Y
VL: B1 VL with E93N
B9: E35-scFv HT30D (scFv, V domains shown)
VH: B1 VH with T30D
VL: B1 VL with E93N
B10: E35-scFv LN93T (scFv, V domains shown)
VH: B1 VH
VL: B1 VL with E93T
B11: E35-scFv HT28H (scFv, V domains shown)
VH: B1 VH with T28H
VL: B1 VL with E93N
B12: E35-scFv HT30A (scFv, V domains shown)
VH: B1 VH with T30A
VL: B1 VL with E93N
B13: E35-scFv HE31A (scFv, V domains shown)
VH: B1 VH with E31A
VL: B1 VL with E93N
B14: E35-scFv HE31D (scFv, V domains shown)
VH: B1 VH with E31D
VL: B1 VL with E93N
B15: E35-scFv HE31P (scFv, V domains shown)
VH: B1 VH with E31P
VL: B1 VL with E93N
B16: E35-scFv LN93K (scFv, V domains shown)
VH: B1 VH
VL: B1 VL with E93K
B17: E35-scFv LN93I (scFv, V domains shown)
VH: B1 VH
VL: B1 VL with E93I
B18: E35-scFv LN93G (scFv, V domains shown)
VH: B1 VH
VL: B1 VL with E93G
B19: E35-scFv HT30E (scFv, V domains shown)
VH: B1 VH with T30E
VL: B1 VL with E93N
B20: E35-scFv LN93A (scFv, V domains shown)
VH: B1 VH
VL: B1 VL with E93A
B21: E35-scFv LN93F (scFv, V domains shown)
VH: B1 VH
VL: B1 VL with E93F
B22: E35-scFv LN93P (scFv, V domains shown)
VH: B1 VH
VL: B1 VL with E93P
B23: E35-scFv LN93L (scFv, V domains shown)
VH: B1 VH
VL: B1 VL with E93L
B24: E35-scFv HT30G (scFv, V domains shown)
VH: B1 VH with T30G
VL: B1 VL with E93N
B25: E35-scFv LN93R (scFv, V domains shown)
VH: B1 VH
VL: B1 VL with E93R
B26: E35-scFv HE31F (scFv, V domains shown)
VH: B1 VH with E31F
VL: B1 VL with E93N
B27: E35-scFv HT28V (scFv, V domains shown)
VH: B1 VH with T28V
VL: B1 VL with E93N
B28: E35-scFv HT30V (scFv, V domains shown)
VH: B1 VH with T30V
VL: B1 VL with E93N
B29: E35-scFv HE31S (scFv, V domains shown)
VH: B1 VH with E31S
VL: B1 VL with E93N
B30: E35-scFv LN93Y (scFv, V domains shown)
VH: B1 VH
VL: B1 VL with E93Y
B31: E35-scFv HE31G (scFv, V domains shown)
VH: B1 VH with E31G
VL: B1 VL with E93N
B32: E35-scFv HE31W (scFv, V domains shown)
VH: B1 VH with E31W
VL: B1 VL with E93N
B33: E35-scFv HE31V (scFv, V domains shown)
VH: B1 VH with E31V
VL: B1 VL with E93N
B34: E35-scFv LN93H (scFv, V domains shown)
VH: B1 VH
VL: B1 VL with E93H
B35: E35-scFv HT30N (scFv, V domains shown)
VH: B1 VH with T30N
VL: B1 VL with E93N
B36: E35-scFv HT30W (scFv, V domains shown)
VH: B1 VH with T30W
VL: B1 VL with E93N
B37: E35-scFv HT30M (scFv, V domains shown)
VH: B1 VH with T30M
VL: B1 VL with E93N
B38: E35-scFv HT30P (scFv, V domains shown)
VH: B1 VH with T30P
VL: B1 VL with E93N
B39: E35-scFv HE31M (scFv, V domains shown)
VH: B1 VH with E31M
VL: B1 VL with E93N
B40: E35-scFv HE31C (scFv, V domains shown)
VH: B1 VH with E31C
VL: B1 VL with E93N
B41: E35-scFv HT30L (scFv, V domains shown)
VH: B1 VH with T30L
VL: B1 VL with E93N
B42: E35-scFv HT30K (scFv, V domains shown)
VH: B1 VH with T30K
VL: B1 VL with E93N
B43: E35-scFv HE31R (scFv, V domains shown)
VH: B1 VH with E31R
VL: B1 VL with E93N
B44: E35-scFv HT30S (scFv, V domains shown)
VH: B1 VH with T30S
VL: B1 VL with E93N

The binders below were run against T1, human GM-CSFRα, full length on cells (human, UniProt P15509 23-400) (assay: cell-based or functional assay).
T1 sequence: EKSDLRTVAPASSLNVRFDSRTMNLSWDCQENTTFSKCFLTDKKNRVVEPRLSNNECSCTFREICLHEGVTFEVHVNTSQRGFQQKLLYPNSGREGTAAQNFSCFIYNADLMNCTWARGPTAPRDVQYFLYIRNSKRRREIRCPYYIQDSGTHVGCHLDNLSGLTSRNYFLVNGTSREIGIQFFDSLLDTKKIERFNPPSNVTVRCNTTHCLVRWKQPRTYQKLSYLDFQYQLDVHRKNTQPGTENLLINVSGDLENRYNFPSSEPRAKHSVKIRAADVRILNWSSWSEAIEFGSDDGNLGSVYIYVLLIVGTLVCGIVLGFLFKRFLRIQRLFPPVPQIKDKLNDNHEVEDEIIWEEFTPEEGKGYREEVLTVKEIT

Binder | IC50, TF-1 cell proliferation
B1 | 0.081 µg/mL
B2 | 0.23 µg/mL
B3 | 0.27 µg/mL
B4 | 0.35 µg/mL
B5 | 0.3 µg/mL
B6 | 0.2 µg/mL
B7 | 0.192 µg/mL
B8 | 0.142 µg/mL
B9 | 0.132 µg/mL
B10 | 0.14 µg/mL
B11 | 0.06 µg/mL
B12 | 0.215 µg/mL
B13 | 0.21 µg/mL
B14 | 0.13 µg/mL
B15 | 0.17 µg/mL
B16 | 0.78 µg/mL
B17 | 0.33 µg/mL
B18 | 0.205 µg/mL
B19 | 0.132 µg/mL
B20 | 0.21 µg/mL
B21 | 0.3 µg/mL
B22 | 0.66 µg/mL

Binder | IC50, TF-1 cell proliferation
B23 | 0.33 µg/mL
B24 | 0.199 µg/mL
B25 | 0.6 µg/mL
B26 | 0.18 µg/mL
B27 | 0.08 µg/mL
B28 | 0.158 µg/mL
B29 | 0.14 µg/mL
B30 | 0.156 µg/mL
B31 | 0.116 µg/mL
B32 | 0.26 µg/mL
B33 | 0.22 µg/mL
B34 | 0.45 µg/mL
B35 | 0.178 µg/mL
B36 | 0.151 µg/mL
B37 | 0.174 µg/mL
B38 | 0.126 µg/mL
B39 | 0.13 µg/mL
B40 | 0.36 µg/mL
B41 | 0.181 µg/mL
B42 | 0.325 µg/mL
B43 | 0.31 µg/mL
B44 | 0.213 µg/mL
